Experimental data: patent publication US20180044401A1
Several values for one entry are separate records, joined by “and”; a condition that tells them apart may be missing. Equal values may be shown once.

Legend:
[1] = target: IgG-Fc of anti-TNFα monoclonal antibody (Remicade); assay: SPR Biacore, Fc immobilized at about 10000 RU, peptide at 25-200 nM, response 1 minute after addition
[2] = target: IgG-Fab prepared from anti-TNFα monoclonal antibody (Remicade); assay: SPR Biacore, Fab immobilized at about 10000 RU, peptide at 25-200 nM, response 1 minute after addition

B1: IgG-binding peptide of SEQ ID NO: 14 (designed binder)
chain: GPLGSTTYKLILNGKTLTGYTTAIADDAATAEKVLKQFANDNGIDGEWTYDDATKTFTVTE
- inclination of approximate curve (binding response against peptide concentration) [1]: 0.5 and 0.4 and 0.6
- inclination of approximate curve (binding response against peptide concentration) [2]: 0.5 and 0.4 and 0.6
